Laboratory results: US20190184035, “BCL11A HOMING ENDONUCLEASE VARIANTS, COMPOSITIONS, AND METHODS OF USE” (bluebird bio, Inc., published 2019)

T1: BCL11A.B4.A3 I-OnuI homing endonuclease variant (Ophiostoma novo-ulmi)
T1 chain: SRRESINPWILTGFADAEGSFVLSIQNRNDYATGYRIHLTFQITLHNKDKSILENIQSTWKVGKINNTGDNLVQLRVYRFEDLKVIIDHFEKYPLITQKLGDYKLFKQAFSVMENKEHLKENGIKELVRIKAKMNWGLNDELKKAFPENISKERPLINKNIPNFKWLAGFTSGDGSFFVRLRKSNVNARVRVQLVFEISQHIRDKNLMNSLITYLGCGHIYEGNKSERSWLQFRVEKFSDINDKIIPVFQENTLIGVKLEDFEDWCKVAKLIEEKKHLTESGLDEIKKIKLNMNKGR

T2: BCL11A.B4.A3 I-OnuI homing endonuclease variant (mammalian expression) (Ophiostoma novo-ulmi)
T2 chain: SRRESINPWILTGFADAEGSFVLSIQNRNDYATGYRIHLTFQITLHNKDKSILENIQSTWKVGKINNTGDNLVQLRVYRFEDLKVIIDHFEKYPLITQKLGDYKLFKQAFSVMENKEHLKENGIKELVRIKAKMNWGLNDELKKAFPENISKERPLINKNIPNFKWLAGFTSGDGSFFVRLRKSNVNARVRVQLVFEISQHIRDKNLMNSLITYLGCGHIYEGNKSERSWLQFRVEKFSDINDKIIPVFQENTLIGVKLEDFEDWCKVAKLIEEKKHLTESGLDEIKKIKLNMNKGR


What was measured:
[1] = test system: CCR5 megaTAL (Artificial); assay: cell_activity; conditions: human CD34+ cells; full megaTAL site not given, HE site given
[2] = molecular target: T1, BCL11A.B4.A3 I-OnuI homing endonuclease …; assay: flow; yeast surface display equilibrium binding titration
Text: The DNA binding affinity and cleavage specificity of the I-OnuI variant BCL11A.B4.A3 was characterized. A plasmid encoding the BCL11A.B4.A3 variant identified during reprogramming (SEQ ID NO: 34) was transformed into S. cerevisiae for surface display.

[3] = molecular target: T2, BCL11A.B4.A3 I-OnuI homing endonuclease …; assay: cell_activity; HEK 293T chromosomal mCherry reporter; conditions: tags: mammalian expression plasmid
Procedure: The activity of reprogrammed I-OnuI HEs that target the GATA-1 motif in the BCL11A gene was measured using a chromosomally integrated fluorescent reporter system (Certo et. al., 2011). Fully reprogrammed I-OnuI HEs that bind and cleave the BCL11A target sequence were cloned into mammalian expression plasmids and then individually transfected into a HEK 293T […] cell line that was reprogrammed to contain the BCL11A target sequence upstream of an out-of-frame gene encoding the fluorescent mCherry protein. Cleavage of the embedded target site by the HE and the subsequent accumulation of small insertions or deletions, caused by DNA repair via the non-homologous end joining (NHEJ) pathway, results in approximately one out of three repaired loci placing the fluorescent reporter gene back “in-frame”. mCherry fluorescence is therefore a readout of endonuclease activity at the chromosomally embedded target sequence. […] FIG. 4A.
A secondary I-OnuI variant library was generated by performing random mutagenesis one of the reprogrammed I-OnuI HEs that targets the BCL11A target site, identified in the initial reporter screen (BCL11.A.B4, SEQ ID NO: 6). In addition, display-based flow sorting was performed under more stringent cleavage conditions (pH adjusted to 7.2) in an effort to isolate variants with improved catalytic efficiency. FIG. 4B. […]

Row | Molecule | activity [1] | Kd [2] | activity [3]
1 | CTTCCAGGAATTCTTTGGCCTG (double strand) [CCR5 HE target site] | 10 % indels | – | –
2 | BCL11A HE target site (dsDNA) DNA 1: CAGTTGCTTTTATCACAGGCTC DNA 2: GAGCCTGTGATAAAAGCAACTG | – | ~0.5 nM | ~3 fold vs BCL11A.B4
